Our source for the Kd, ELISA binding value and response level (biolayer interferometry) values is patent US20190330277A1.

The target of experiment [1] is bRSV RB94 DSCav1 (bovine respiratory syncytial virus, strain RB94) (UniProt P23728). Briefly: biolayer interferometry (Octet), variant on Ni-NTA tip, Fab in solution.
In experiment [2] the target is 391-2-DS-Cav1-sc9deleteFS 98C-362C. Briefly: ELISA, variant from culture supernatant on Ni-NTA plate.
In experiment [3] the target is 391-2-DS-Cav1-sc9 99C-361C. Described as above.
Experiment [4] has as its target 391-2-DS-Cav1-sc9 100C-362C. The description is as above.
In experiment [5] the target is 391-2-DS-Cav1-sc9 99C-362C. The description is as above.
Experiment [6] addresses RB94 sc9 DS-CAV1 N183GC-N428C L373R. The experiment is described as above.
The target of experiment [7] is 391-2 sc9 DS-Cav1 98C-362C. The experiment is described as above.
Experiment [8] concerns the target RB94 sc9 DS-CAV1 N183GC-N428C L373R Long K226L. Described as above.
Experiment [9] addresses 391-2-DS-Cav1_ sc9_I28C-G464C. The experiment is described as above.
Experiment [10] concerns the target RB94 sc9 DS-CAV1 N183GC-N428C L373R Long. The experiment is described as above.
The target of experiment [11] is 391-2-DS-Cav1-BZGJ9deleteFS. The experiment in a line: ELISA, variant from culture supernatant on Ni-NTA plate [continued].
Experiment [12] concerns the target bRSV RB94 DSCav1 (bovine respiratory syncytial virus, strain RB94) (UniProt P23728).
The target is the same in experiment [13]. Briefly: biolayer interferometry Octet binding analysis.

Chain of MPE8 antibody (VH): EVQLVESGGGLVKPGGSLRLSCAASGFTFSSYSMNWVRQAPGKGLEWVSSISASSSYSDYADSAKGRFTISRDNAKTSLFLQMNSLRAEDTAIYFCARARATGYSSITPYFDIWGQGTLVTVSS
Chain of MPE8 antibody (VL): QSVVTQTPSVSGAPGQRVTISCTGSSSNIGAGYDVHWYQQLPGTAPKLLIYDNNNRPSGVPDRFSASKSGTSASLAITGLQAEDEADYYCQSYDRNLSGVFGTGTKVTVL

Substance AM14 Fab had a Kd in experiment [1] of 4.9 nM.

motavizumab Fab had a Kd in [1] of 0.9 nM.

As to MPE8 antibody, the ELISA binding value in experiment [2] came to 0.448; in experiment [3] it was 0.198; in experiment [4], 0.131; in experiment [5] it was 0.311; in experiment [6], 0.322; in [7] it was 0.48. In addition, the ELISA binding value in experiment [8] is 0.293; in [9], 0.203; in experiment [10], 0.335; in [11], 0.0675; in experiment [12] it was 0.199. In experiment [13], this substance yielded a response level (biolayer interferometry) of 0.5 nm.

Turning to MPE8 Fab, the Kd in experiment [1] worked out at 0.2 nM.
